Results published in patent US20220125962A1.

B1: ^225/7Ac-HuM195 (HuM195-DOTA conjugate labeled with linac/accelerator-generated ^225Ac containing a molar excess of ^227Ac) (antibody, INN chains, looked up, V domains shown)
VH: QVQLVQSGAEVKKPGSSVKVSCKASGYTFTDYNMHWVRQAPGQGLEWIGYIYPYNGGTGYNQKFKSKATITADESTNTAYMELSSLRSEDTAVYYCARGRPAMDYWGQGTLVTVSS
VL: DIQMTQSPSSLSASVGDRVTITCRASESVDNYGISFMNWFQQKPGKAPKLLIYAASNQGSGVPSRFSGSGSGTDFTLTISSLQPDDFATYYCQQSKEVPWTFGQGTKVEIK
modifications: DOTA conjugate labelled with 225Ac/227Ac

Assays:
[1] = target: human CD33 antigen (human) (UniProt P20138); test: immunoreactivity of the radiolabeled HuM195-DOTA conjugate, Preparation 2; format not described
[2] = target: human CD33 antigen (human) (UniProt P20138); test: immunoreactivity of the radiolabeled HuM195-DOTA conjugate, Preparation 1; format not described

Row | Immunoreactivity (%) [1] [%] | Immunoreactivity (%) [2] [%] | Molecule
1 | 82 | 72.2 | ^225Ac-HuM195 (HuM195-DOTA conjugate labeled with thorium cow-generated ^225Ac) (antibody)
2 | 83 | 65.4 | B1
